Experimental data from publication doi:10.1101/2024.09.04.610023 (bioRxiv, 2024).

T1: Purified human GST-PABPN1 (human, UniProt Q86U42-1 1-306)
T1 sequence (looked up): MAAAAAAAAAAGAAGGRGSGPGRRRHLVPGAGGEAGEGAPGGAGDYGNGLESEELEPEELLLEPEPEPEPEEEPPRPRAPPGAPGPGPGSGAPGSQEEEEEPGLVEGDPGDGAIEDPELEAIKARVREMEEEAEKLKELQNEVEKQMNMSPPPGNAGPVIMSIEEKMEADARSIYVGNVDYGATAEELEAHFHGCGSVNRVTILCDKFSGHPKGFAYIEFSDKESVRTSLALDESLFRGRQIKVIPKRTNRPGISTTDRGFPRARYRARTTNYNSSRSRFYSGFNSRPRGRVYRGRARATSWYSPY


Each binder was assayed against T1, Purified human GST-PABPN1 (assay: peptide or protein array).

Binder	binding result
QPKFKRFLRHPLPK (peptide, UniProt Q63053 330-343, looked up) [Arc array peptide 330-343]	binds
LWRKRDLYQTLYVD (peptide, UniProt Q63053 302-315, looked up) [Arc array peptide 302-315]	binds
TQIFEDPREFLSHL (peptide, UniProt Q63053 211-224, looked up) [Arc array peptide 211-224]	binds
